Laboratory results reported in patent US20200392528A1, “IMPROVED PLANT EPSP SYNTHASES AND METHODS OF USE” (PIONEER HI-BRED INTERNATIONAL, INC., priority 2017, published 2020).
Read-outs that look alike come from different tables or passages of the source.

How the values were obtained:
[1] = tested on: maize EPSPS; assay: substrate saturation kinetic analysis (kcat, KM PEP, KI glyphosate); assay type: biochemical; details: for KI/KM: discrimination between glyphosate and PEP
Method: (§1) EPSPS activity was determined by quantifying the phosphate generated from the EPSPS reaction. Release of inorganic phosphate was coupled to its reaction with 2-amino-6-mercapto-7-methylpurine ribonucleoside (MESG), catalyzed by purine nucleoside phosphorylase, according to previously described protocols. To determine the kcat gly, enzyme preparations were normalized to 0.1 mg/ml and four- to six-microliter aliquots of normalized enzyme were added to the wells of a low UV-absorbing 96-well assay plate (Greiner UV-Star). Reactions were started with the addition of 2×147 μl of reaction mixture containing 25 mM Hepes, pH 7.0, 100 mM KCl, 5% ethylene glycol, 30 μM each of PEP and S3P, 0.15 mM MESG, 1.5 U/ml purine nucleoside phosphorylase (Sigma N8264) and 1 mM glyphosate. Absorbance was monitored at 4 sec intervals for 50 sec with a Spectramax plate reader (Molecular Devices). […] Division by the enzyme concentration (0.04 to 0.1 uM, depending on activity) yields “kcat gly” in units of min^−1.
(§2) Approximately 30 substitutions were designed into each library. Assuming an average incorporation rate of six substitutions per variant, the theoretical size of such libraries is ˜7×10^5. Libraries were screened using methods described previously and the enhanced method described in Example 2. The number of colony-forming units plated and screened was in the range of 50 to 100% of the theoretical size. Up to 200 colonies per library were picked for evaluation of the expressed variant. Proteins were purified as described previously in PCT/US2016/054399, incorporated herein by reference. Protein concentration was determined by measuring optical density at 280 nm. The extinction coefficient of native maize EPSPS (0.676 OD/mg/ml) was calculated by vNTI and used to convert OD280 to mg/ml. Kinetic parameters were determined as described in Example 1.
Combinatorial shuffling, maize native EPSPS—The mutations discovered were used to construct a combinatorial library designed to explore combinations of the desensitizing mutations in novel sequence contexts provided by the newly identified neutral mutations. Note that the amino acid position numbering in this Example 10 refers to the relative position of native maize EPSPS without the N-terminal Met. Therefore, G101A in this Example would be G102A in reference to SEQ ID NO: 1, wherein the maize EPSPS sequence has a Met added at the N-terminal. The diversity used was the same with the addition of G101A, T102 (IALGV) and P106(WA). In all, 43 substitutions at 29 positions were selected. The library was synthesized entirely from oligonucleotides, using the known technique of synthetic shuffling and was termed NatFS (Native, fully synthetic). The vector DNA of the library was transformed into the BL21(DE3) Tuner-AroA knockout strain and the cells were plated onto M9 medium containing either 30 mM glyphosate and 30 μM of the lac operon inducer isopropyl β-D-1-thiogalactopyranoside (IPTG) or 50 mM glyphosate and no IPTG. The 184 colonies that grew on either plate were picked and subjected to a second tier of screening in which EPSPS proteins were purified and activity measured at high (200 μM) and low (50 μM) PEP and S3P, with or without 10 μM glyphosate. Selected variants were subjected to substrate saturation kinetic analysis.

[2] = tested on: maize EPSPS; assay: kcat gly / kgly: enzyme turnover under application conditions (30 μM PEP and S3P, 1 mM glyphosate), phosphate release coupled to MESG; assay type: biochemical; details: for Zm/Os: ratio of kcat gly, maize variant to rice ortholog
Method: (§3) A more straight-forward, accurate and meaningful parameter is one in which one rate measurement is performed under presumed in vivo conditions, if known. To establish a set of conditions that mimic those under which the mutated enzyme needs to perform, the concentrations of PEP and S3P were set low (30 uM, subject to the sensitivity of assay conditions) to approach the presumed intracellular concentrations (˜15 uM, the approximate values of KM for both PEP and S3P). Glyphosate is included at 1 mM. The pH is set at 7.0 and ionic strength at 100 mM KCl, also to mimic known in vivo conditions. Ethylene glycol is present at 5% (v/v) to approximate the dielectric constant of intracellular fluid. The parameter is termed “enzyme turnover under application conditions”, which is herein shortened to “kcat gly”. The conventional formatting of the expression “kcat” is not used, to avoid this term being characterized as a standard kinetic constant.
as §1, §2
A customized parameter for predicting performance in the treated plant that would be a more accurate representation than kcat/Km*Ki. […] However, kcat/Km*Ki may be inadequate for predicting the reaction velocity under the conditions of the application (plants sprayed with glyphosate) because it may neglect concentrations of substrate and inhibitor, factors that are not intrinsic to the enzyme, but on which the reaction rate depends. Therefore, libraries derived from C1 on in FIG. 2 were evaluated with a single rate measurement designed to take all factors in the rate equation for competitive inhibition into account. […] Glyphosate was included at 1 mM, a concentration attainable in tissues, especially meristems, receiving metabolite flow from treated leaves. The pH (7.0), ionic strength (100 mM KCl) and co-solvent concentration (5% ethylene glycol) were also intended to mimic in vivo conditions. The unit for the parameter is reaction rate (μM·min^−1) per enzyme concentration (μM), or min^−1, describing the enzyme turnover under application conditions, which we abbreviate as “kgly”. […]

[3] = tested on: rice EPSPS; assay: kcat gly: enzyme turnover under application conditions, rice orthologs; assay type: biochemical, rice (Oryza sativa); details: Table 5
Method: as §3, §1
Only variable positions are shown. Naturally occurring differences in the rice sequence from the maize sequence are shown. The mutations designed to create rice orthologs of selected maize variants are shown. Genes designed to encode the rice orthologs were synthesized by a commercial provider and expressed and purified as described above.
Fitness is indicated by the parameter kcat gly, defined in Example 1.

[4] = Table 2, KM for PEP, read-out: KM
[5] = Table 2, 30 μM PEP and S3P, 1 mM glyphosate, pH 7.0

Molecule | kcat ([1]; Table 2) [s⁻¹] | kcat/KM*KI ([1]; Table 2) | Km [1, 4] [µM] | KI/KM ([1]; Table 2) | Ki ([1]; Table 2, inhibitor glyphosate) [µM] | kcat gly [2, 5] [min⁻¹] | kcat gly ([2]; Table 5, maize variants) [min⁻¹] | Zm/Os ([2]; Table 5) | kcat gly [3] [s⁻¹] | also measured
Zm F3: maize EPSPS variant, SEQ ID NO: 11 (protein, Zea mays) MAGAEEIVLQPIKEISGTVKLPGSKSLSNRILLLAALSEGTTVVDNLLNSEDVHYMLGALRTLGLSVEADKAAKRAVVVGCGGKFPVEDAKEEVQLFCGNAATAMRPLTAAVTAAGGNATYVLDGVPRMRERPIGDLVVGLKQLGADVDCFLGTDCPPVRVNGIGGLPGGKVKLSGSISSQYLSALLMAAPLALGDVEIEIIDKLISIPYVEMTLRLMERFGVKAEHSDSWDRFYIKGGQKYKSPKNAYVEGDASSASYFLAGAAITGGTVTVEGCGTTSLQGDVKFAEVLEMMGAKVTWTETSVTVTGPPREPFGRKHLKAIDVNMNKMPDVAMTLAVVALFADGPTAIRDVASWRVKESERMVAIRTELTKLGASVEEGPDYCIITPPEKLNVTAIDTYGDHRMAMAFSLAACAEVPVTIRDPGCTRKTFPDYFDVLSTFVKN | 7.87 | 7280 | 71.5 | 15.4 | 1100 | 39.3 | 45.2 | 1.16 | – | –
Zm F3-88: maize EPSPS variant, SEQ ID NO: 12 (protein, Zea mays) MAGAEEIVLQPIKEISGTVKLPGSKSLSNRILLLAALSEGTTVVDNLLNSEDVGYMLGALRTLGLSVEADKAAKRAVVVGCGGKFPVEDAKEEVQLFCGNAATAMRPLTAAVTAAGGNATYVLDGVPRMRERPIGDLVVGLKQLGADVDCFLGTDCPPVRVNGIGGLPGGKVKLSGSISSQYLSALLMAAPLALGDVEIEIIDKLISIPYVEMTLVLMERFGVKAYHSDSWDRFYIKGGQKYKSPKNAYVEGDASSASYFLAGAAITGGTVTVEGCGTTSLQGDVKFAEVLEMMGAAVTWTETSVTVTGPPREPFGRKHLKAIDVNMNKMPDAAMTLAVVALFADGPTAIRDVASWRVKESERMVAIRTELTKLGASVEEGPDYCIITPPEKLNVTAIDTYGDHRMAMAFSLAACAEVPVTIRDPGCTAKTFPDYFDVLSTFVKN | 11.6 | 29600 | 55.6 | 44.0 | 2440 | 85.7 | 98 | 1.57 | – | –
Os D2-67: rice EPSPS ortholog of Zm D2-67, SEQ ID NO: 17 (protein, listed as Oryza sativa) MRKWEEIVLQPIREISGAVQLPGSKSLSNRILLLSALSEGTTVVDNLLNSEDVHYMLEALKALGLSVEHDKVAKRAVVVGCGGRFPVEKDAKGEVQLFCGNAATAMRPLTAAVTAAGGNATYVLDGVPRMRERPIGDLVVGLKQLGADVDCFLGTECPPVRVKGIGGLPGGKVKLSGSISSQYLSALLMAAPLALGDVEIEIIDKLISLPYVEMTLRLMERFGVKAEHSDSWDRFYIKGGQKYESPGNAYVEGDASSASYFLAGAAITGGTVTVQGCGTTSLQGDVKFAEVLEMMGAKVTWTDTSVTVTGPPREPYGKKHLKAVDVNMNKMPDAAMTLAVVALFADGPTAIRDVASWRVKETERMVAIRTELTKLGASVEEGPDYCIITPPPKLNITAIDTYGDHRMAMAFSLAACADVPVTIRDPGCTRKTFPNYFDVLSTFVRN | – | – | – | – | – | – | – | – | 1.7 | –
Os F3: rice EPSPS ortholog of Zm F3, SEQ ID NO: 18 (protein, listed as Oryza sativa) MAKAEEIVLQPIREISGAVQLPGSKSLSNRILLLSALSEGTTVVDNLLNSEDVHYMLEALKALGLSVEADKVAKRAVVVGCGGKFPVEKDAKEEVQLFCGNAATAMRPLTAAVTAAGGNATYVLDGVPRMRERPIGDLVVGLKQLGADVDCFLGTECPPVRVKGIGGLPGGKVKLSGSISSQYLSALLMAAPLALGDVEIEIIDKLISIPYVEMTLRLMERFGVKAEHSDSWDRFYIKGGQKYKSPGNAYVEGDASSASYFLAGAAITGGTVTVQGCGTTSLQGDVKFAEVLEMMGAKVTWTDTSVTVTGPPREPYGKKHLKAVDVNMNKMPDVAMTLAVVALFADGPTAIRDVASWRVKESERMVAIRTELTKLGASVEEGPDYCIITPPEKLNITAIDTYGDHRMAMAFSLAACADVPVTIRDPGCTRKTFPNYFDVLSTFVRN | – | – | – | – | – | – | – | – | 0.65 | –
Zm D2c-A5: maize EPSPS variant with 21 mutations, SEQ ID NO: 59 (protein, Zea mays) MSKWEEIVLQPIKEISGTVKLPGSKSLSNRILLLAALSEGTTVVDNLLNSEDVGYMLGALRTLGLSVEHDEAAKRAVVVGCGGRFPVEDAKGEVQLFCGNAATAMRPLTAAVTAAGGNATYVLDGVPRMRERPIGDLVVGLKQLGADVDCFLGTDCPPVRVRGIGGLPGGKVKLSGSISSQYLSALLMAAPLALGDVEIEIIDKLISLPYVEMTLRLMERFGVRAEHSDSWDRFYIKGGQKYESPKNAYVEGDASSASYFLAGAAITGGTVTVEGCGTTSLQGDVKFAEVLELMGAKVTWTPTSVTVTGPPREPFGRKHLKAIDVNMNKMPDAAMTLAVVALFADGPTAIRDVGSWRVKETERMVAIRTELTKLGASVEEGPDYCIITPPPKLNVTAIDTYGDHRMAMAFSLAACGEVPVTIRDPGCTRKTFPDYFDVLSTFVKN | – | – | – | – | – | – | – | – | – | Ki ([1]; Ki for glyphosate): 839 ± 40 µM; Km ([1]; apparent Km, PEP present at 10 times its Km, read-out: Km S3P): 12.6 ± 1.4 µM; Km ([1]; apparent Km, S3P present at 10 times its Km, read-out: Km PEP): 18.1 ± 0.6 µM; kcat/Km*Ki ([1]; calculated with Km for PEP): 34350; kcat ([1]; maize EPSPS variants): 12.4 ± 0.1 s⁻¹; kcat gly ([2]; D2c variants with substitutions relative to D2-124, no unit in table (kcat gly given in min^−1)): 156; kgly ([2]; enzyme turnover at 30 μM PEP and S3P, 1 mM glyphosate): 186 ± 4.7 min⁻¹
Os F3-88: rice EPSPS ortholog of Zm F3-88, SEQ ID NO: 19 (protein, listed as Oryza sativa) MAKAEEIVLQPIREISGAVQLPGSKSLSNRILLLSALSEGTTVVDNLLNSEDVGYMLEALKALGLSVEADKVAKRAVVVGCGGKFPVEKDAKEEVQLFCGNAATAMRPLTAAVTAAGGNATYVLDGVPRMRERPIGDLVVGLKQLGADVDCFLGTECPPVRVKGIGGLPGGKVKLSGSISSQYLSALLMAAPLALGDVEIEIIDKLISIPYVEMTLVLMERFGVKAYHSDSWDRFYIKGGQKYKSPGNAYVEGDASSASYFLAGAAITGGTVTVQGCGTTSLQGDVKFAEVLEMMGAAVTWTDTSVTVTGPPREPYGKKHLKAVDVNMNKMPDAAMTLAVVALFADGPTAIRDVASWRVKESERMVAIRTELTKLGASVEEGPDYCIITPPEKLNITAIDTYGDHRMAMAFSLAACADVPVTIRDPGCTAKTFPNYFDVLSTFVRN | – | – | – | – | – | – | – | – | 1.04 | –
